Results as given in patent US7556938B1, “Nucleic acids encoding potassium channel interactors” (Millennium Pharmaceuticals, Inc., priority 1998, dated 2009).

B1: KChIP4N2: N-terminal splice variant of KChIP4 (protein)
chain: MNLEGLEMIAVLIVIVLFVKLLEQFGLIEAGLEDSVEDELEMATVRHRPEALELLEAQSKFTKKELQILYRGFKNECPSGVVNEETFKEIYSQFFPQGDSTTYAHFLFNAFDTDHNGAVSFEDFIKGLSILLRGTVQEKLNWAFNLYDINKDGYITKEEMLDIMKAIYDMMGKCTYPVLKEDAPRQHVETFFQKMDKNKDGVVTIDEFIESCQKDENIMRSMQLFENVI
B2: KChIP4N1: KChIP4 splice variant KChIP4a (protein)
chain: MLTLEWESEGLQTVGIVVIICASLKLLHLLGLIDFSEDSVEDELEMATVRHRPEALELLEAQSKFTKKELQILYRGFKNECPSGVVNEETFKEIYSQFFPQGDSTTYAHFLFNAFDTDHNGAVSFEDFIKGLSILLRGTVQEKLNWAFNLYDINKDGYITKEEMLDIMKAIYDMMGKCTYPVLKEDAPRQHVETFFQKMDKNKDGVVTIDEFIESCQKDENIMRSMQLFENVI
B3: KChIP1l: KChIP1long splice variant of KChIP1 (protein)
chain: MGAVMGTFSSLQTKQRRPSKDIAWWYYQYQRDKIEDELEMTMVCHRPEGLEQLEAQTNFTKRELQVLYRGFKNECPSGVVNEDTFKQIYAQFFPHGDASTYAHYLFNAFDTTQTGSVKFEDFVTALSILLRGTVHEKLRWTFNLYDINKDGYINKEEMMDIVKAIYDMMGKYTYPVLKEDTPRQHVDVFFQKMDKNKDGIVTLDEFLESCQEDDNIMRSLQLFQNVM
B4: KChIP1N: N-terminal splice variant of KChIP1 (protein)
chain: MWAEGESEGLQTLGIVVVVCSSLKLLHYLGLIDLSDDKIEDELEMTMVCHRPEGLEQLEAQTNFTKRELQVLYRGFKNECPSGVVNEDTFKQIYAQFFPHGDASTYAHYLFNAFDTTQTGSVKFEDFVTALSILLRGTVHEKLRWTFNLYDINKDGYINKEEMMDIVKAIYDMMGKYTYPVLKEDTPRQHVDVFFQKMDKNKDGIVTLDEFLESCQEDDNIMRSLQLFQNVM
B5: KChIP4N3: KChIP4 splice variant KChIP4d (protein)
chain: MNVRRVESISAQLEEASSTGGFLYAQNSTKRSIKERLMKLLPCSAAKTSSPAIQNSVEDELEMATVRHRPEALELLEAQSKFTKKELQILYRGFKNECPSGVVNEETFKEIYSQFFPQGDSTTYAHFLFNAFDTDHNGAVSFEDFIKGLSILLRGTVQEKLNWAFNLYDINKDGYITKEEMLDIMKAIYDMMGKCTYPVLKEDAPRQHVETFFQKMDKNKDGVVTIDEFIESCQKDENIMRSMQLFENVI

Test system: rKv4.3
Test: Two-electrode voltage clamp of Kv4.3 currents in Xenopus oocytes co-injected with KChIP cRNA
Type: cell-based, rat
Details: for effect on Kv4.3 current: co-injected with Kv4.3 cRNA; for fold increase of inactivation time constant of Kv4.3: versus Kv4.3 alone
Method: Frogs underwent no more than two surgeries and surgeries were performed by well established techniques. Frogs were anesthetized with ice. Total cRNA (1-10 ng) was injected into stage IV Xenopus oocytes that were harvested the previous day. The Xenopus oocytes were incubated in ND96 containing (in mM) 96 NaCl, 2 KCl, 1.8 CaCl2, 1 MgCl2, 5 HEPES, pH 7.6, plus (Gentamycin 50 μg/ml) at 18° C. Xenopus oocytes were studied 3-7 days after injection. The two-electrode voltage-clamp recordings were performed in ND96 solution using a TURBO TEC 03 Clamp Amplifier (ALA Scientific Instruments, Westbury, N.Y.). Both electrodes were filled with 3 M KCl and had electrode resistances ranging from 0.2-1 MOhm. The current signals were filtered at 1000 Hz before transferred on a PC (Gateway, Calif.) using the PULSE software (HEKA, Germany).
To investigate whether the modulatory effects of these KChIPs are specific for Kv4 channels, KChIP1 was coexpressed with Kv1.4 and Kv2.1 in Xenopus oocytes. Xenopus oocytes were injected with 1-3 ng/oocyte of cRNA which was prepared using standard in vitro transcription techniques (Sambrook et al. 1989. Molecular Cloning: a laboratory manual, Cold Spring Harbor Press). Currents in Xenopus oocytes were measured with a two-electrode voltage clamp. […] As a final control for the KChIP effects and to verify that the KChIPs' effects on Kv4 currents are independent of expression system, the above kinetic analyses were repeated after expressing Kv4.3 and KChIP mRNAs in Xenopus oocytes. The effects KChIP1 on for Kv4.3 in the Xenopus oocyte system were strikingly similar to those on Kv4.2 in CHO cells (Table 1).

[1] = Kv4.3 co-expressed with the KChIP

rKv4.3, sequence (Q62897 1-487 limits assumed): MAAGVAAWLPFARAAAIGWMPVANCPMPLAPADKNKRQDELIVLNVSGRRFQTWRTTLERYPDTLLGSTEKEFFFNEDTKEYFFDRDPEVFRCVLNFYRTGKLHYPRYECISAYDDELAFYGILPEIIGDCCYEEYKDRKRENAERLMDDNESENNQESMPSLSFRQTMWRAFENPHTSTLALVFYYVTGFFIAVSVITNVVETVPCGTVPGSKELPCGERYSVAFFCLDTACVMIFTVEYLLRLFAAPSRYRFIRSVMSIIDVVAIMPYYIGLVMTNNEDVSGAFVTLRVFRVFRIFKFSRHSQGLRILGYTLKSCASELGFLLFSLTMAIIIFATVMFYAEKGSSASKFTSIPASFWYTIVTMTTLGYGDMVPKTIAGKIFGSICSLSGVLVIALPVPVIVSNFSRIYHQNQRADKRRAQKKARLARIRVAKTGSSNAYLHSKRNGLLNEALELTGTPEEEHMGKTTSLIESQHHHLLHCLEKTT

Row | Molecule | Inactivation time constant (ms ± SEM) [1] [ms] | Peak amplitude (μA ± SEM) [1] [μA] | effect on Kv4.3 current | fold increase of inactivation time constant of Kv4.3 [fold] | also measured
1 | B1 |  |  |  |  | Peak amplitude (μA ± SEM) (KChIP4N2 cRNA 1× (stock)): 0 ± 0 μA; Peak amplitude (μA ± SEM) (KChIP4N2 cRNA diluted 5×): 4 ± 1 μA; Inactivation time constant (ms ± SEM) (KChIP4N2 cRNA diluted 30×): 681 ± 28 ms; Peak amplitude (μA ± SEM) (KChIP4N2 cRNA diluted 30×): 25 ± 2 μA; Inactivation time constant (ms ± SEM) (KChIP4N2 cRNA diluted 120×): 193 ± 13 ms; Peak amplitude (μA ± SEM) (KChIP4N2 cRNA diluted 120×): 16 ± 3 μA; Inactivation time constant (ms ± SEM) (KChIP4N2 cRNA diluted 500×): 84 ± 5 ms; Peak amplitude (μA ± SEM) (KChIP4N2 cRNA diluted 500×): 9 ± 4 μA; effect on inactivation kinetics of Kv4.3 (high concentrations of KChIP4N2 (e.g. 5× dilution of stock)): converted the fast-inactivating Kv4.3 current into an almost non-inactivating current
2 | B2 | 112 ± 7 | 6 ± 1 | statistically had no significant (ns) effect on Kv4.3 amplitude |  | 
3 | B3 | 100 ± 8 | 55±7 |  | ~2 | 
4 | B4 | 1778 ± 136 | 18±3 | did not affect peak amplitude of Kv4.3 | 32 | 
5 | B5 | 85 ± 4 | 43 ± 4 | increased the peak amplitude of Kv4.3 |  | 
